From patent publication US20220144895A1, “DE NOVO DESIGN OF TUNABLE PH-DRIVEN CONFORMATIONAL SWITCHES” (University of Washington, priority 2019, published 2022)
Entries after “also recorded” stand apart in the source; their conditions may differ.

Key:
U2-OS cells = experiment: Colocalization of +36GFP fusions with lysosomal membrane (confocal microscopy); format: cell-based; conditions: 5 μM, 1 hr
Description: U-2 OS (ATCC) cells were cultured in DMEM supplemented with 10% (v/v) inactivated FBS (Corning), 2 mM glutamine, penicillin (100 IU/mL), and streptomycin (100 μg/mL) at 37° C. and 5% CO2. The glass-bottom coverslip chambers were pre-coated with 500 μg/mL of Matrigel (Corning). Transfection of LAMP1-HaloTagTM was performed using Lonza Nucleofector system according to the manufacturer's specifications. After overnight of recovery and expression, the cells expressing LAMP1-HaloTagTM were labeled with 100 nM JF646-HTL for 30 minutes and washed three times with pre-warmed DMEM medium. The final concentration of 5 μM+36GFP fusion proteins was incubated with the LAMP1-HaloTagTM expressing U-2 OS cells on a pre-coated coverslip for 1 hr. Cells were fixed with 4% paraformaldehyde for 20 min at room temperature (RT) and quenched/rinsed with PBS supplemented with 30 mM glycine. Then, the coverslips were mounted on FluoroSaveTM (Millipore). For pH measurement of the lysosome, LysoSensorTM Yellow/Blue DND-160 was incubated at 1 mg/mL overnight and washed twice prior to imaging (54). The final concentration of 5 μM protein was incubated with the LAMP1-HaloTag expressing U2-OS cells that were loaded with 1 mg/mL LysoSensorTM Yellow/Blue DND-160 for 1 hr. In separate chambers, LysoSensorTM Yellow/Blue DND-160 loaded cells were incubated with bafilomycin A1 (1 μM) and chloroquine (50 μM) for 1 hr as a control. For fixed cell confocal microscopy, a customized Nikon TiE inverted scope outfitted with a Yokogawa spinning-disk scan head (#CSU-X1) along with an Andor iXonTM EM-CCD camera (DU-897) with […] exposure time was used to collect 3D images using an SR Apo TIRF 100×1.49 oil-immersion objective. […] coefficients were calculated in 3D with JF646 signal (LAMP-HaloTag) and +36GFP signal (corresponding proteins) using Imaris software with thresholding. Zeiss 880 equipped with AiryScanTM was also used to obtain high resolution images using a Plan-Apochromatic 63×/1.4 oil DIC objective.

[1] = Cryo-electron microscopy and tomography of proteins with DOPC liposomes; conditions: gold-nanoparticle conjugates; for membrane deformation and disruption by cryo-EM: pH 5
Description: The conjugation reactions were performed immediately prior to use for electron microscopy imaging. […] The grids were prepared using a Vitrobot Mark IV (FEI) at 4 C and 100% humidity before being plunge-frozen in ethane cooled with liquid nitrogen.
Electron micrographs were collected using a Tecnai G2 Spirit™ Transmission Electron Microscope (FEI) operated at 120 kV and equipped with a 4k×4k Gatan Ultrascan CCD camera at a nominal magnification of 26,000× or a Tecnai TF-20 Transmission Electron Microscope (FEI) operated at 200 kV equipped with a K2 Summit Direct Electron Detector (Gatan).
Projection micrographs collected on the TF-20 were captured with the detector operating in counting mode. Specimens were imaged at 14,500 magnification, giving a pixel size of 0.254 nm, with a dose of ˜18e−/Å^2 across 75 200 ms movie frames. Data were collected in a semi-automated fashion using Leginon™ (49) and micrograph movie frames were aligned using MotionCor2™ (50). Leginon™ was used to collect tomography tilt series from −48 to +48 degrees bidirectionally in 3 degree increments with a total accumulated dose of ˜100 e−/Å^2. Reconstructions were processed using etomo in the IMOD™ software suite (31) with CTF parameters estimated from CTFFIND4™ (52). Reconstructed tomograms were visualized and measurements were made using ImageJ™ (53).

[2] = Circular dichroism: GdmCl chemical denaturation and temperature melts; conditions: for folding stability by GdmCl denaturation: CD at 222 nm, PBS pH 7.4 or Na2PO4-Citrate at lower pH
Description: For low-pH experiments involving circular dichroism (CD), small-angle X-ray scattering (SAXS), and size exclusion chromatography (SEC), Na2PO4-Citrate buffer was used to ensure that a single buffer system could be used that was stable over the entire pH range to be tested. Buffers were made using established ratios of stock solutions of 0.2 M Na2PO4 and 0.1 M Citrate; final pH was adjusted using hydrochloric acid (HCl) or sodium hydroxide (NaOH) if needed.
CD wavelength scans (260 to 195 nm) and temperature melts (25 to 95° C.) were measured using a JASCO™ J-1500 or an AVIV™ model 420 CD spectrometer. Temperature melts monitored absorption signal at 222 nm and were carried out at a heating rate of 4° C./min; protein samples were at 0.25 mg/mL in either phosphate buffered saline (PBS) pH 7.4 or Na2PO4-Citrate at indicated pH values (see Buffers systems for varying pH). Guanidinium chloride (GdmCl) titrations were all performed on an AVIV 420 spectrometer with an automated titration apparatus using either PBS pH 7.4 or Na2PO4-Citrate buffers at indicated pH at room temperature, monitoring helical signal at 222 nm, using a protein concentration of 0.025 mg/mL in a 1 cm cuvette with stir bar. Each titration consisted of at least 30 evenly distributed concentration points with one minute mixing time for each step. Titrant solution consisted of the same concentration of protein in the same buffer system plus GdmCl; GdmCl concentration of starting solutions was determined by reactive index.

[3] = Fluorescence dequenching liposome leakage (liposome disruption) assay; format: biochemical; conditions: for pH-dependent liposome disruption: SRB leakage
Procedure, shortened: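 Extruded ~120–130 nm liposomes (DOPC or 3:1 DOPC:POPS, ± 25% cholesterol) loaded with 25 mM sulforhodamine B in Tris buffer pH 8.0 were acidified to target pH for 20 min at 24 °C. Leakage was read as SRB dequenching (ex/em 565/586) and normalised to pre-acidification and 1% Triton X-100 signals.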

[4] = 2.5 μM protein with respect to monomer

Molecule	colocalization with lysosomal membranes (U2-OS cells)	membrane deformation and disruption by cryo-EM [1]	effect of EDTA on helical fold or thermostability ([2]; 10 mM EDTA, PBS pH 7.4)	folding stability by GdmCl denaturation [2]	highest pH with liposome disruption [3, 4] [pH]	pH of maximal liposome disruption activity [3, 4] [pH]	pH-dependent liposome disruption [3, 4]	disruption of liposomes with more native-like lipid compositions ([3]; pH 5.0, DOPC, POPS, cholesterol mixtures)	colocalization with lysosomal membranes (U2-OS cells; listed as I56V)	interaction with liposomes by cryo-EM ([1]; pH 5 and pH 8)
pRO-2: designed pH-responsive homotrimer, SEQ ID NO: 1-2 (protein) chain 1: MGSHHHHHHGSGSENLYFQGSEYEIRKALEELKAATAELKRATASLRAITEELKKNPSEDALVEHNRAIVEHNAIIVEHNRIIAAVLELIVRAIK chain 2: SEYEIRKALEELKAATAELKRATASLRAITEELKKNPSEDALVEHNRAIVEHNAIIVEHNRIIAAVLELIVRAIK	colocalize with lysosomal membranes and are not degraded	widespread membrane deformation and disruption of the lipid bilayer	no effect on the helical fold or thermostability	decreased folding stability at low pH; also recorded: strongly pH dependent	≤ 6	~5	disrupts liposomes in a pH-dependent manner	caused pH-dependent disruption of liposomes with more native-like lipid compositions		
pRO-2 I56V: pRO-2 mutant, SEQ ID NO: 17-18 (protein) chain 1: MGSHHHHHHGSGSENLYFQGSEYEIRKALEELKAATAELKRATASLRAITEELKKNPSEDALVEHNRAIVEHNAIVVEHNRIIAAVLELIVRAIK chain 2: GSEYEIRKALEELKAATAELKRATASLRAITEELKKNPSEDALVEHNRAIVEHNAIVVEHNRIIAAVLELIVRAIK	clearly localized within lysosomes	widespread membrane deformation and disruption of the lipid bilayer		decreases stability			increased liposome permeabilization activity; also recorded: increased membrane permeabilization activity		colocalize with lysosomal membranes and are not degraded; also recorded: most strongly colocalized with the lysosomal membrane	directly interacts with liposomes at pH 5 but not at pH 8; also recorded: interacts directly with liposomes at pH 5 but not pH 8
